Results on six sequences are retold here after a protein production outcome set (Wang et al. 2014).

The series can be described thus: label from the status in PepcDB records.
“NVRVITDENWRELLEGDWMIEFYAPWCPACQNLQPEWESFAEWGEDLEVNIAKVDVTEQPGLSGRFIINALPTIYHCKDGEFRRYQGPRTKKDFINFISDKEWKSIEPVSSWF”: the protein production result is reported as “not failed”.
The value for “MIRNVLKLLALLADEIVIVALVIIFLRRVSARLAVIVGGALILFNLFLVKLLWGTLKKKAEVGAEALIGEKAVVVEDLNPVGLVKVKNELWTAECISGTARRGEKVRIVQVKGAKLLVEKDDNAGKFL” was “failed”.
Consider “MDPWDTYNIPLDHQHRLRNRRDHRHPSFSSTLLDQIYRSIDDSSTNSSSMRKTKHQNREDTRVSANRRDDFNRSKNLKTIEPVFFKHSSSSSSDSSGFSSSESDYFYRRSKSSPAISHPKPIRTTVERFERSPQNHRPNSSNKQEHGSFLKTKSKALKIYSDLKKVKQPISPGGRLATFLNSIFTGAGNTKKLNKINTTVTSTTAAAAAASSTTTCSSASSFSRSCLSKTPSSSEKSKRSVRFCPVNVIFDEDSSKYNNKNNKVYGNNEREYESIRHTLENRVMEENRRVIEAAKELLRSYQKKNKEVIEVSVEDDEEDDDDDALSCTSSDLFELDNLSAIGIDRYREELPVYETTRLNTNRIISR”, for which the protein production result is reported as “failed”.
For the sequence “ANVKLLLPYILKWEGGFVHDPADAGGATNKGVTIATWKRVGYDKDGDGDIDVEDLKLLTDDDVLNRVLKPFYWDRWKADLIESQKVANILVDWVWGSGKYGIVIPQRILGVQADGIVGNKTLQAVNSADPDELFESIFDARREFLEDITARSIKKYEDSIGRKATERELLRHTNKRFLRGWLNRLEDI”, the protein production result is “not failed”.
Take “MDRRDYYVEYYEVLDRVLSDYVNQLREKREHWLKMGGHDVGVPLINLLFWQFTWHREEYDRLRKEGKSCGEALGSVKEILADKQVEEWERQEEEYKIYDHEWYEALAPYGGQLVIYIYNARQLVYLTPLIERLEEPVLLLSEYEIPDETELPDFVTAITLEFTKTVPLVNPFLKEWFPLIFQYANTFDILMRILQPKGLIFLEGCHYQQLLLATIGRDYGIPTLCIQQGWPSLMHTAFRRMPYRYYLMWGEGFRTLWEKHNPLPDFVPTGYMYQVEPRNETKKECVTFFLQGPFFLSDKRYLQEMIRLIGTVAAEFPARRFLVREHPEFRIGEEVRMEWEQIPNIEMVTDGKLAEVFARTRVGVAHYSSSLMEGVAHGAVPLVYDPTEGSRYSPDVEAEGLGMIAKTKEELTGGLSRILGNYEDFKQRIEKEQPLWFQATGEETLRNMVGFIKEKMPPVTLKEIYVVDTDTLTRERPVGVSGLLRCKNCEDFLEMCIDSCIDGLDELIAVYHDCTDRTPEILRQKAAQYPDKIRVFEYQPSVYPIDLDEEELEKAKLLPPDSIHTLAGYCNYALSKASYRYAVKIDADQVYFTDRLKHICDAYRSDKKVRFNVAECISYNLYRAYVDSFNRIEMRPFRWLERIALWTHASYASYLEKMIIRYKVPVSMSGINLFRKDREWMVGLGQEHPEPDSKEILPPFNGVRDTFFFEVSEDRIFRYMTETKLDGRHRGVEVMRCPNEILDVGFCWFHLRALMKEHEEGYRQSYRKHPERFIPLGTFVKLSYRNLQQRYKPFVAVRWAEPVFAYFFMTGKGRIPWKKLKEIE”: the protein production result was “failed”.
The value for “MNEEQRKSTSIDILAERDKKTKDYSKYFEHVYQPPSLKEARKRGKEEVNYNDDFQIDEKYRNMGQGKTFLIKTYGCQMNAHDTEVMAGILGALGYTPTEDINHADVILINTCAIRENAENKVFSEIGNLKHLKKEKPETVIGVCGCMSQEESVVNKILKSYQNVDMIFGTHNIHRLPEILEEAYLSKAMVVEVWSKEGDVIENLPKVREGNIKAWVNIMYGCDKFCTYCIVPFTRGKERSRRPEDIIDEVRDLARQGYKEITLLGQNVNAYGKDIDGLAYGLGDLLEDISKIDIPRVRFTTSHPWDFTDRMIEVIANGGNIVPHVHLPVQSGNNAVLKIMGRKYTRESYLDLVNRIKTHIPNVALTTDIIVGYPNETDEQFEETLTLYDEVEFEHAYTYIYSQRDGTPAAKMNDNVPLDVKKDRLQQLNKKVACYSERAMQQYEGQTVQVLCEGVSKKDDTVLSGYTSKNKLVNFKAPKSMIGKIVNVYIDEAKQFSLNGTFISVNDKTVVTQLEHHHHHH” was “not failed”.
